Experimental data from patent publication EP1226177B1 (GENENTECH, INC., dated 2008).

Target: T1, gD-huPSCA expressed on the surface of transfected cells (Herpes Simplex virus; human, UniProt O43653 12-114)
T1 construct: domain: 25 amino acids of the mature gD; also called gD-PSCA; gDPSCA
Experiment: cold competition of 125I-Mab 2403 by unlabeled Mab 2403 on PC3.gD.hu PSCA cells, four parameter fit (m3 = IC50)

B1: anti-PSCA monoclonal antibody 5F2.4H4.1E3 (antibody, V domains shown)
VH: QVQVQQPGAELVKPGAPVKLSCKASGYTFTNYWLNWVKQRPGRGLEWIGRIDPSDSEIHYDQKFKDKATLTVDKSSSTAYIQLSSLTSEDSAVYYCALTGIYAMAYWGQGTSVTVSS
VL: DIVMTQAAPSVPVTPGESVSISCRSSKSLLHSNGNTYLYWFLQRPGQSPQLLIYRMSNLASGVPDRFSGSGSGTAFTLRISRVEAEDVGVYYCLQHLEYPYTFGGGTKLELKR
notes: also called 2403; Mab 2403
With B1 the IC50 was 13 nM.
